Article PMC12123872

Experiments:
[1] = target: POLR2A fragment Ile1231-Lys1350 (UniProt P24928 1231-1350); test: EMSA
[2] = target: T1, RAD21 (UniProt O60216 1-631); test: EMSA
T1 sequence: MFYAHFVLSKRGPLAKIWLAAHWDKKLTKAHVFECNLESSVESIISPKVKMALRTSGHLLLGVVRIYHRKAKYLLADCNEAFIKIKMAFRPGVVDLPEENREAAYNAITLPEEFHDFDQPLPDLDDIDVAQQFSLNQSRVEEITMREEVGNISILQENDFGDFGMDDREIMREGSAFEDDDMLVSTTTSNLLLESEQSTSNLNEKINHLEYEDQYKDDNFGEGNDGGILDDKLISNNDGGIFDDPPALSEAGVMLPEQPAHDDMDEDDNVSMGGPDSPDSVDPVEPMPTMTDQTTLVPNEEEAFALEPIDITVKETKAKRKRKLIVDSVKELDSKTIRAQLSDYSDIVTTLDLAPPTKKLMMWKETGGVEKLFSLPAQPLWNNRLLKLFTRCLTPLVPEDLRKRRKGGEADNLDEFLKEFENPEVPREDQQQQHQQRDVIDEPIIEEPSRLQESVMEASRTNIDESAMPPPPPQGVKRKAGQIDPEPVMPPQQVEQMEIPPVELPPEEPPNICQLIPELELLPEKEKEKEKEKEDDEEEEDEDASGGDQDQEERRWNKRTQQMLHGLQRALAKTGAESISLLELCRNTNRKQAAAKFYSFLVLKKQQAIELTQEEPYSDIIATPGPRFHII

Chain of POLR2A fragment Ile1231-Lys1350 (P24928 1231-1350): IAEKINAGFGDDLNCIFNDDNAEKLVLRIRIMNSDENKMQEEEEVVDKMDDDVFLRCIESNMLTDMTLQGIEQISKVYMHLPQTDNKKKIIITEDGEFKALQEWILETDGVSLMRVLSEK

B1: rs1950834-G probe (dsDNA)
DNA 1: TCGGAGTTTGGCCTTCCGGCTCTCCAACTCAGATC
DNA 2: GATCTGAGTTGGAGAGCCGGAAGGCCAAACTCCGA
binding result [1]: binds | binding result [2]: binds
